Measured values published in patent publication US20180371093A1 (Novartis, published 2018).

Experiments:
[1] = target: T1, Programmed Death 1 (PD-1) (UniProt Q15116 25-167, limits assumed); experiment: cell-based or functional assay
[2] = target: T1, Programmed Death 1 (PD-1); experiment: rank among the 16 humanized clones by FACS binding data
[3] = target: T1, Programmed Death 1 (PD-1); experiment: FACS ligand blocking: binding of PD-L1-Ig to PD-1 at increasing mAb concentration (legend paragraph 212 names 'PD-L1-Ig and PD-L2-Ig' for FIG. 8A)
[4] = target: T1, Programmed Death 1 (PD-1); experiment: rank in competition binding against labelled murine mAb BAP049, 2nd experiment
[5] = target: T1, Programmed Death 1 (PD-1); experiment: rank in competition binding against labelled murine mAb BAP049, 1st experiment

T1 sequence (Q15116 25-167 limits assumed): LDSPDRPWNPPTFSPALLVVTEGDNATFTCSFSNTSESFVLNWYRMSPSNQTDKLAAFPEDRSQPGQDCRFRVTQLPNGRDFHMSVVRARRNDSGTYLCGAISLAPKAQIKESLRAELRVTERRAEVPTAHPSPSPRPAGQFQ

Row | Binder | ex vivo EC50 for PD-1 blockade (IL-2 change in SEB ex-vivo assay) [1] [µg/mL] | Ranking FACS data [2] [rank] | IC50 (read off the curve) [3] [µg/mL] | Competition Binding 2nd exp. (rank) [4] [rank] | Competition Binding 1st exp. (rank) [5] [rank]
1 | BAP049-Clone-E (antibody, human IgG4 S228P, kappa) heavy: not shown light: EIVLTQSPATLSLSPGERATLSCKSSQSLLDSGNQKNFLTWYQQKPGQAPRLLIYWASTRESGVPSRFSGSGSGTDFTFTISSLEAEDAATYYCQNDYSYPYTFGQGTKVEIKRTVAAPSVFIFPPSDEQLKSGTASVVCLLNNFYPREAKVQWKVDNALQSGNSQESVTEQDSKDSTYSLSSTLTLSKADYEKHKVYACEVTHQGLSSPVTKSFNRGEC | 0.42 |  |  |  | 
2 | BAP049-hum10 (antibody, human IgG4 S228P, kappa, Humanized mAb) heavy: not shown light: EIVLTQSPATLSLSPGERATLSCKSSQSLLDSGNQKNFLTWYQQKPGQAPRLLIYWASTRESGVPSRFSGSGSGTDFTFTISSLEAEDAATYYCQNDYSYPYTFGQGTKVEIKRTVAAPSVFIFPPSDEQLKSGTASVVCLLNNFYPREAKVQWKVDNALQSGNSQESVTEQDSKDSTYSLSSTLTLSKADYEKHKVYACEVTHQGLSSPVTKSFNRGEC |  | 7 | ~1 | > 4 | 6
3 | BAP049-hum01 (antibody, human IgG4 S228P, kappa, V domains shown, Humanized mAb) VH: EVQLVQSGAEVKKPGESLRISCKGSGYTFTTYWMHWVRQATGQGLEWMGNIYPGTGGSNFDEKFKNRVTITADKSTSTAYMELSSLRSEDTAVYYCTRWTTGTGAYWGQGTTVTVSS VL: EIVLTQSPATLSLSPGERATLSCKSSQSLLDSGNQKNFLTWYQQKPGQAPRLLIYWASTRESGVPSRFSGSGSGTEFTLTISSLQPDDFATYYCQNDYSYPYTFGQGTKVEIKR |  | 2 | ~1 | 2 | 7
4 | BAP049-hum05 (antibody, human IgG4 S228P, kappa, V domains shown, Humanized mAb) VH: EVQLVQSGAEVKKPGESLRISCKGSGYTFTTYWMHWVRQATGQGLEWMGNIYPGTGGSNFDEKFKNRVTITADKSTSTAYMELSSLRSEDTAVYYCTRWTTGTGAYWGQGTTVTVSS VL: EIVLTQSPATLSLSPGERATLSCKSSQSLLDSGNQKNFLTWYQQKPGKAPKLLIYWASTRESGVPSRFSGSGSGTDFTFTISSLQPEDIATYYCQNDYSYPYTFGQGTKVEIKR |  | 5 | ~1 | > 4 | 5
5 | Chi mAb (Tyr) (antibody, human IgG4 S228P, kappa, V domains shown, also called BAP049-chi-Y; Chi (Tyr)) VH: QVQLQQSGSELVRPGASVKLSCKASGYTFTTYWMHWVRQRPGQGLEWIGNIYPGTGGSNFDEKFKNRTSLTVDTSSTTAYMHLASLTSEDSAVYYCTRWTTGTGAYWGQGTTVTVSS VL: DIVMTQSPSSLTVTAGEKVTMSCKSSQSLLDSGNQKNFLTWYQQKPGQPPKLLIFWASTRESGVPDRFTGSGSVTDFTLTISSVQAEDLAVYYCQNDYSYPYTFGQGTKVEIKR |  |  | ~0.9 |  | 
6 | Mu mAb (antibody, V domains shown, Unlabelled when its concentration is varied; also called murine anti-PD-1 mAb BAP049; Mu mAb control) VH: QVQLQQSGSELVRPGASVKLSCKASGYTFTTYWMHWVRQRPGQGLEWIGNIYPGTGGSNFDEKFKNRTSLTVDTSSTTAYMHLASLTSEDSAVYYCTRWTTGTGAYWGQGTLVTVSA VL: DIVMTQSPSSLTVTAGEKVTMSCKSSQSLLDSGNQKNFLTWYQQKPGQPPKLLIFWASTRESGVPDRFTGSGSVTDFTLTISSVQAEDLAVYYCQNDYSYPCTFGGGTKLEIK |  |  | ~0.7 |  | 
